Data: publication PMC10801861, “Elf1 promotes Rad26’s interaction with lesion-arrested Pol II for transcription-coupled repair” (Proceedings of the National Academy of Sciences of the …, 2024)

B1: Rad26 (wild type) (enzyme, S. cerevisiae)
chain: MEDKEQQDNAKLENNESLKDLGVNVLSQSSLEEKIANDVTNFSNLQSLQQEETRLERSKTALQRYVNKKNHLTRKLNNTTRISVKQNLRDQIKNLQSDDIERVLKDIDDIQSRIKELKEQVDQGAENKGSKEGLQRPGETEKEFLIRTGKITAFGHKAGFSLDTANREYAKNDEQKDEDFEMATEQMVENLTDEDDNLSDQDYQMSGKESEDDEEEENDDKILKELEDLRFRGQPGEAKDDGDELYYQERLKKWVKQRSCGSQRSSDLPEWRRPHPNIPDAKLNSQFKIPGEIYSLLFNYQKTCVQWLYELYQQNCGGIIGDEMGLGKTIQVIAFIAALHHSGLLTGPVLIVCPATVMKQWCNEFQHWWPPLRTVILHSMGSGMASDQKFKMDENDLENLIMNSKPSDFSYEDWKNSTRTKKALESSYHLDKLIDKVVTDGHILITTYVGLRIHSDKLLKVKWQYAVLDEGHKIRNPDSEISLTCKKLKTHNRIILSGTPIQNNLTELWSLFDFIFPGKLGTLPVFQQQFVIPINIGGYANATNIQVQTGYKCAVALRDLISPYLLRRVKADVAKDLPQKKEMVLFCKLTKYQRSKYLEFLHSSDLNQIQNGKRNVLFGIDILRKICNHPDLLDRDTKRHNPDYGDPKRSGKMQVVKQLLLLWHKQGYKALLFTQSRQMLDILEEFISTKDPDLSHLNYLRMDGTTNIKGRQSLVDRFNNESFDVFLLTTRVGGLGVNLTGANRIIIFDPDWNPSTDMQARERAWRIGQKREVSIYRLMVGGSIEEKIYHRQIFKQFLTNRILTDPKQKRFFKIHELHDLFSLGGENGYSTEELNEEVQKHTENLKNSKSEESDDFEQLVNLSGVSKLESFYNGKEKKENSKTEDDRLIEGLLGGESNLETVMSHDSVVNSHAGSSSSNIITKEASRVAIEAVNALRKSRKKITKQYEIGTPTWTGRFGKAGKIRKRDPLKNKLTGSAAILGNITKSQKEASKEARQENYDDGITFARSKEINSNTKTLENIRAYLQKQNNFFSSSVSILNSIGVSLSDKEDVIKVRALLKTIAQFDKERKGWVLDEEFRNNNAS
notes: Rad26, S. cerevisiae ortholog of human CSB, Swi2/Snf2 family ATPase; also called Rad26(WT); yeast ortholog of CSB; source: E. coli Rosetta 2(DE3), purified (Ni-NTA agarose, Hi-Trap Heparin HP, Superdex 200)

Assays:
[1] = molecular target: S. cerevisiae 12-subunit RNA polymerase II (S. cerevisiae) (UniProt P04050); assay: mass photometry; 12-subunit CPD-arrested Pol II complex (EC, on DNA/RNA scaffold) mixed with an equimolar amount of Rad26, diluted to 5, 10, 15 and 25 nM, incubated 20 min; no Elf1; Kd from particle counts, 12 reads
[2] = molecular target: S. cerevisiae 12-subunit RNA polymerase II (S. cerevisiae) (UniProt P04050); assay: mass photometry; 12-subunit CPD-arrested Pol II complex (EC, on DNA/RNA scaffold) mixed with an equimolar amount of Rad26, diluted to 2, 5, 15 and 20 nM, with additional Elf1 (final 500 nM), incubated 20 min; Kd from particle counts, 12 reads
[3] = molecular target: T1, Rpb1 subunit of S. cerevisiae RNA polymerase II (S. cerevisiae, UniProt P04050 1-1733); assay: cryo-EM structure; Pol II(CPD)-Rad26 with 10-subunit Pol II lacking Rpb4/7, CPD lesion scaffold; 4.7 A; details: both partners purified
T1 construct: Rpb1, largest subunit of S. cerevisiae RNA polymerase II, within the assembled polymerase; Seen only as a subunit of Pol II in the structures
T1 sequence (P04050 whole entry): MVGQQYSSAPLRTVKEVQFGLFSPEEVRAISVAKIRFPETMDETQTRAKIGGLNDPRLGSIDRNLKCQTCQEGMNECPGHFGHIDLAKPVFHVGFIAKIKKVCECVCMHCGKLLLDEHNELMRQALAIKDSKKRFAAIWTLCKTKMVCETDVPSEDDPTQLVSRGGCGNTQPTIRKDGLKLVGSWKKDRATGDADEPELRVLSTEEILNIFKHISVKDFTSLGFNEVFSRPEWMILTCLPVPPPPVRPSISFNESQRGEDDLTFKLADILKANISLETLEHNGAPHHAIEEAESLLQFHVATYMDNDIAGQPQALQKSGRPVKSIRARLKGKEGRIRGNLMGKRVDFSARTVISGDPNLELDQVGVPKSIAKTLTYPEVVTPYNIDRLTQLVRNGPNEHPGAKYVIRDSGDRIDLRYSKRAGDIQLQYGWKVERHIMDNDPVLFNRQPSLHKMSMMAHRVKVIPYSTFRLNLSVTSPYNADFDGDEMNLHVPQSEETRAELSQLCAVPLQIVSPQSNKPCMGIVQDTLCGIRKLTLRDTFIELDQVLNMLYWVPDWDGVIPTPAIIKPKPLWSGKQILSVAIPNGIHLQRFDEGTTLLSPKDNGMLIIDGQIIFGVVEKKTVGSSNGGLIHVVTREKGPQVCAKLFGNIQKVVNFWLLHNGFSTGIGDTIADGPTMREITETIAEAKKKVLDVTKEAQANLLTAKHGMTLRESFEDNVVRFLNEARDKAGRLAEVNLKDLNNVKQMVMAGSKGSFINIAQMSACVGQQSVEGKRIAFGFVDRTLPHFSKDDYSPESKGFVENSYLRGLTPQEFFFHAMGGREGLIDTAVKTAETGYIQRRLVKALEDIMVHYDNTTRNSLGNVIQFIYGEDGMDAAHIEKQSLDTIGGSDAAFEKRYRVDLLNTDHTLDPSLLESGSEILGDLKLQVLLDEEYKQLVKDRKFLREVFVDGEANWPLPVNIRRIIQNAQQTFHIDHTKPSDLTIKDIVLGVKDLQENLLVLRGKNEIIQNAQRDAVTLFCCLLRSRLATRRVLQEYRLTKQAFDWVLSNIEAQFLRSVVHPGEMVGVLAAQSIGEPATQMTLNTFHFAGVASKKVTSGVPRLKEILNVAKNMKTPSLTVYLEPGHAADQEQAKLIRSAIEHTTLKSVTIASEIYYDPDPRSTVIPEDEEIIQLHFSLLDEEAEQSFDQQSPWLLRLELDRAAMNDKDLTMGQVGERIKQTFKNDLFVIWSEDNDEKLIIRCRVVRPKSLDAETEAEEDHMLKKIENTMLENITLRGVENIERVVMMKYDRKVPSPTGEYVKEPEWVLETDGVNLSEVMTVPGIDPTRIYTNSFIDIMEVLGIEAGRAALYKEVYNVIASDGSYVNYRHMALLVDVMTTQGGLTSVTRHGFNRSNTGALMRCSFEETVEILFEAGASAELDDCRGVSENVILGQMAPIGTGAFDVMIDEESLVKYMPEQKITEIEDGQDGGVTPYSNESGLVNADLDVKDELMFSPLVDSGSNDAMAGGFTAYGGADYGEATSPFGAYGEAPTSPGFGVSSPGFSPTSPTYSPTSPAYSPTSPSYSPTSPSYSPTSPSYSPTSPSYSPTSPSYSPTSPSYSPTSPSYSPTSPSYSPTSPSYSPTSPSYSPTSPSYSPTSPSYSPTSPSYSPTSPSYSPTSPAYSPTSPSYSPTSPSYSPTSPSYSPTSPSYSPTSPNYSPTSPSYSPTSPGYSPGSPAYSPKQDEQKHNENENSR

[4] = molecular target: T2, Rpb2 subunit of S. cerevisiae RNA polymerase II (S. cerevisiae, UniProt P08518 1-1224); assay: as above; details: both partners purified
T2 construct: Rpb2, second largest subunit of S. cerevisiae RNA polymerase II, within the assembled polymerase; Seen only as a subunit of Pol II in the structures
T2 sequence (P08518 whole entry): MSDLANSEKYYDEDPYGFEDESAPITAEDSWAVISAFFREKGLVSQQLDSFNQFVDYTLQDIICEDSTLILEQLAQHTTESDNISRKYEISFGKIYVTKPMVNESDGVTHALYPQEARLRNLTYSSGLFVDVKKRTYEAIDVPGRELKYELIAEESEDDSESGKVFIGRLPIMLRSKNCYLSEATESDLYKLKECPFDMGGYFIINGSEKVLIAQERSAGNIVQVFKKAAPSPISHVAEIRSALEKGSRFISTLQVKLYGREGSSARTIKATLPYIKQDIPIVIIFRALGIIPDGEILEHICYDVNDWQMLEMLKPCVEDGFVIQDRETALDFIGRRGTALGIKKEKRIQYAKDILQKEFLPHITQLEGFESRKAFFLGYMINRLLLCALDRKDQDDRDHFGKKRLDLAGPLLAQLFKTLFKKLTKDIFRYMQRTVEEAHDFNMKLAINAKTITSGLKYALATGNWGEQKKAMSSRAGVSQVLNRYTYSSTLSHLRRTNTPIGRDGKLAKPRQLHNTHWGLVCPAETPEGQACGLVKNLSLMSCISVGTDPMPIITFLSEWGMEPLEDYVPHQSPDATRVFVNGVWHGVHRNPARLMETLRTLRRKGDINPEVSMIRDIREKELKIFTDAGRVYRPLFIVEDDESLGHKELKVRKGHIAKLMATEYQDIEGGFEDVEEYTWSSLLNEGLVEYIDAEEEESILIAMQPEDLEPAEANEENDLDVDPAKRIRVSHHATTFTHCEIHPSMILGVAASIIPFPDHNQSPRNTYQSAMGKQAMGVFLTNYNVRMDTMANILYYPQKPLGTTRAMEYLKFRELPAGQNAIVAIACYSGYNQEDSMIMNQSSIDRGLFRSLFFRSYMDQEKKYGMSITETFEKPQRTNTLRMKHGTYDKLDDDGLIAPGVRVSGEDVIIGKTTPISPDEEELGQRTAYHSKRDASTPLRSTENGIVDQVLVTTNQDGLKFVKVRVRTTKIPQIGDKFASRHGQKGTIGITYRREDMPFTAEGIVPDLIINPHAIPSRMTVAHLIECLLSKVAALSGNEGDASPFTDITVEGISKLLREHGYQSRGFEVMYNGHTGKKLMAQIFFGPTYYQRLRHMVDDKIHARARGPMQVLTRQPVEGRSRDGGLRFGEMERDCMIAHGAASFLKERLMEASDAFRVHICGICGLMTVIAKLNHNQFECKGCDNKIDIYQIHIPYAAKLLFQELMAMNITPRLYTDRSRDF

Rad26 (wild type) = molecular target: B1; assay: cryo-EM structure; Pol II(CPD)-Rad26-Elf1 (Closed state): Elf1 incubated with the Pol II(CPD)-Rad26 complex; 1 uM Pol II, 2 uM Rad26, 1.1 uM scaffold, 5 uM Elf1; 3.1 A; details: both partners purified

Kd [1] [nM] | Kd [2] [nM] | binding result [3] | binding result [4] | binding result (Rad26 (wild type)) | Binder
23 | 9 | binds | binds | – | B1
– | – | – | – | binds | Rpb4/7 heterodimer of S. cerevisiae RNA polymerase II (complex, Rpb4 subunit of S. cerevisiae RNA polymerase II; Rpb7 subunit of S. cerevisiae RNA polymerase II; In the structures it stood assembled into 12-subunit Pol II; also called Pol II stalk) chain 1: MNVSTSTFQTRRRRLKKVEEEENAATLQLGQEFQLKQINHQGEEEELIALNLSEARLVIKEALVERRRAFKRSQKKHKKKHLKHENANDETTAVEDEDDDLDEDDVNADDDDFMHSETREKELESIDVLLEQTTGGNNKDLKNTMQYLTNFSRFRDQETVGAVIQLLKSTGLHPFEVAQLGSLACDTADEAKTLIPSLNNKISDDELERILKELSNLETLY chain 2: MFFIKDLSLNITLHPSFFGPRMKQYLKTKLLEEVEGSCTGKFGYILCVLDYDNIDIQRGRILPTDGSAEFNVKYRAVVFKPFKGEVVDGTVVSCSQHGFEVQVGPMKVFVTKHLMPQDLTFNAGSNPPSYQSSEDVITIKSRIRVKIEGCISQVSSIHAIGSIKEDYLGAI
